According to US20230257448A1 (TWIST BIOSCIENCE, published 2023):

Assays:
Details in all cases: remark: other sources report otherwise
[1] = target: prefusion-stabilized S trimer of the Omicron (B.1.529) variant (SARS-CoV-2), P0DTC2
[2] = target: prefusion-stabilized S trimer of the Delta variant (SARS-CoV-2), P0DTC2
[3] = target: S1 monomer of SARS-CoV-2 Delta (SARS-CoV-2), P0DTC2

B1: 3-31 (Fc fusion)
chain: EVQLVESGGGLVQPGGSLRLSCAASGSTFSINAMGWFRQAPGKEREFVAGITSSGGYTNYADSVKGRFTISADNSKNTAYLQMNSLKPEDTAVYYCAADGVPEYSDYASGPVWGQGTLVTVSS
[1]
  Kd: 2.1 nM
[2]
  Kd: < 0.016 nM
[3]
  Kd: 1.1 nM
